Reference: the supplement of paper PMC9112550, “Optimization of the antimicrobial peptide Bac7 by deep mutational scanning” (BMC Biology, 2022)

Test system: Escherichia coli TOP10
Assay: shrunken log2 fold change of peptide-encoding DNA abundance (4.5 h post-induction vs induction); higher = less antimicrobial activity (less host growth inhibition)
Conditions: time post-induction: 4.5 h; library: site-saturation at positions 5, 18, 19, 20
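Note: peptides expressed intracellularly from a pBAD plasmid library in pooled LB shake-flask culture, induced with 0.3% L-arabinose, DNA abundance read by NGS, three biological replicates, DESeq2 with apeglm shrinkage.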

Sequence	shrunken log2 fold change
RRIRERPPRLPRPRPRPPWGPRP	0.285
RRIRERPPRLPRPRPRPNMDPRP	-0.209
RRIRTRPPRLPRPRPRPFDYPRP	-0.0205
RRIRLRPPRLPRPRPRPTTLPRP	0.0342
RRIRTRPPRLPRPRPRPKNYPRP	-0.346
RRIRPRPPRLPRPRPRPYHPPRP	-0.246
RRIRTRPPRLPRPRPRPCIQPRP	0.0196
RRIRRRPPRLPRPRPRPNFQPRP	0.253
RRIRSRPPRLPRPRPRPWCIPRP	-0.0292
RRIRCRPPRLPRPRPRPGFSPRP	-0.257
RRIRGRPPRLPRPRPRPVQLPRP	0.0748
RRIRYRPPRLPRPRPRPCYMPRP	0.0232
RRIRLRPPRLPRPRPRPMYNPRP	-0.273
RRIRERPPRLPRPRPRPIALPRP	-0.0132
RRIRPRPPRLPRPRPRPRGVPRP	0.347
RRIRFRPPRLPRPRPRPLSAPRP	-0.039
RRIRLRPPRLPRPRPRPNAIPRP	-0.385
RRIRRRPPRLPRPRPRPSLLPRP	0.17
RRIRLRPPRLPRPRPRPHLHPRP	-0.424
RRIRERPPRLPRPRPRPFNVPRP	-0.0305
RRIRQRPPRLPRPRPRPWIYPRP	0.0039
RRIRDRPPRLPRPRPRPEKCPRP	-0.000921
RRIRDRPPRLPRPRPRPNYNPRP	-0.865
RRIRERPPRLPRPRPRPRNAPRP	0.105
RRIRGRPPRLPRPRPRPVWNPRP	0.0596

Sequence	shrunken log2 fold change
RRIRTRPPRLPRPRPRPRWYPRP	-0.288
RRIRGRPPRLPRPRPRPVIVPRP	0.626
RRIRNRPPRLPRPRPRPTASPRP	1.61
RRIRSRPPRLPRPRPRPFQFPRP	-0.157
RRIRWRPPRLPRPRPRPGQEPRP	0.617
RRIRRRPPRLPRPRPRPFQPPRP	0.331
RRIRERPPRLPRPRPRPQTWPRP	0.138
RRIRGRPPRLPRPRPRPHDQPRP	0.62
RRIRRRPPRLPRPRPRPAEWPRP	0.136
RRIRARPPRLPRPRPRPENFPRP	0.0336
RRIRLRPPRLPRPRPRPAQIPRP	0.214
RRIRLRPPRLPRPRPRPRLPPRP	0.149
RRIRSRPPRLPRPRPRPYRNPRP	-0.254
RRIRTRPPRLPRPRPRPSCIPRP	-0.44
RRIRLRPPRLPRPRPRPFDVPRP	-0.0798
RRIRGRPPRLPRPRPRPTYKPRP	0.937
RRIRFRPPRLPRPRPRPVPNPRP	-0.0743
RRIRQRPPRLPRPRPRPGHEPRP	0.104
RRIRPRPPRLPRPRPRPFSPPRP	-0.266
RRIRIRPPRLPRPRPRPSGWPRP	0.037
RRIRWRPPRLPRPRPRPDHCPRP	-0.00992
RRIRERPPRLPRPRPRPKIWPRP	0.0407
RRIRYRPPRLPRPRPRPPCAPRP	2.51
RRIRGRPPRLPRPRPRPAFGPRP	0.476
RRIRWRPPRLPRPRPRPDQRPRP	0.098

Sequence	shrunken log2 fold change
RRIRQRPPRLPRPRPRPFADPRP	-0.0142
RRIRPRPPRLPRPRPRPQMDPRP	-0.395
RRIRPRPPRLPRPRPRPTSIPRP	-0.375
RRIRNRPPRLPRPRPRPCPPPRP	-0.328
RRIRRRPPRLPRPRPRPHWQPRP	0.28
RRIRFRPPRLPRPRPRPFGVPRP	-0.166
RRIRIRPPRLPRPRPRPNRSPRP	0.00656
RRIRNRPPRLPRPRPRPFREPRP	-0.0373
RRIRCRPPRLPRPRPRPVENPRP	0.112
RRIRRRPPRLPRPRPRPGWHPRP	0.176
RRIRSRPPRLPRPRPRPFHIPRP	-1.07
RRIRERPPRLPRPRPRPWHHPRP	-0.326
RRIRKRPPRLPRPRPRPWDRPRP	0.394
RRIRLRPPRLPRPRPRPQHSPRP	-0.337
RRIRVRPPRLPRPRPRPCAPPRP	-0.22
RRIRKRPPRLPRPRPRPYMWPRP	-0.0774
RRIRQRPPRLPRPRPRPGPNPRP	-0.0457
RRIRFRPPRLPRPRPRPFWVPRP	-0.0435
RRIRPRPPRLPRPRPRPCHVPRP	-0.0695
RRIRERPPRLPRPRPRPRNPPRP	-0.0856
RRIRLRPPRLPRPRPRPEPVPRP	2.62
RRIRHRPPRLPRPRPRPGYRPRP	-0.00177
RRIRKRPPRLPRPRPRPMMCPRP	0.0781
RRIRGRPPRLPRPRPRPQDEPRP	0.111
RRIRIRPPRLPRPRPRPFEDPRP	-0.207

Sequence	shrunken log2 fold change
RRIRTRPPRLPRPRPRPNPFPRP	-0.216
RRIRFRPPRLPRPRPRPPKYPRP	-0.0263
RRIRCRPPRLPRPRPRPVVFPRP	-0.123
RRIRERPPRLPRPRPRPAAHPRP	-0.128
RRIRNRPPRLPRPRPRPNYAPRP	-0.178
RRIRWRPPRLPRPRPRPPVDPRP	0.494
RRIRERPPRLPRPRPRPLRHPRP	0.11
RRIRSRPPRLPRPRPRPQHGPRP	-0.397
RRIRLRPPRLPRPRPRPCFHPRP	-0.49
RRIRYRPPRLPRPRPRPISPPRP	0.0589
RRIRTRPPRLPRPRPRPYFMPRP	-0.836
RRIRPRPPRLPRPRPRPAQWPRP	0.384
RRIRFRPPRLPRPRPRPFGQPRP	-0.288
RRIRLRPPRLPRPRPRPADPPRP	0.0111
RRIRGRPPRLPRPRPRPFVYPRP	0.077
RRIRFRPPRLPRPRPRPTYVPRP	-0.137
RRIRRRPPRLPRPRPRPHCSPRP	-0.0453
RRIRSRPPRLPRPRPRPDKKPRP	-0.158
RRIRVRPPRLPRPRPRPSVYPRP	-0.25
RRIRNRPPRLPRPRPRPGYWPRP	0.168
RRIRMRPPRLPRPRPRPTTNPRP	0.403
RRIRIRPPRLPRPRPRPVFFPRP	-0.107
RRIRTRPPRLPRPRPRPKNMPRP	-0.359
RRIRVRPPRLPRPRPRPFHFPRP	-0.238
RRIRERPPRLPRPRPRPEYEPRP	0.0303

Sequence	shrunken log2 fold change
RRIRPRPPRLPRPRPRPMTLPRP	-0.189
RRIRRRPPRLPRPRPRPDSQPRP	0.157
RRIRIRPPRLPRPRPRPVSRPRP	0.0446
RRIRVRPPRLPRPRPRPEMVPRP	-0.0955
RRIRDRPPRLPRPRPRPFAVPRP	-0.0136
RRIRIRPPRLPRPRPRPGFFPRP	-0.00894
RRIRWRPPRLPRPRPRPNKPPRP	-0.0749
RRIRGRPPRLPRPRPRPKNPPRP	0.489
RRIRWRPPRLPRPRPRPEEKPRP	0.584
RRIRTRPPRLPRPRPRPLFAPRP	0.228
RRIRGRPPRLPRPRPRPMCGPRP	0.645
RRIRDRPPRLPRPRPRPSIYPRP	-0.313
RRIRCRPPRLPRPRPRPFTNPRP	-0.685
RRIRTRPPRLPRPRPRPVNLPRP	-0.0397
RRIRRRPPRLPRPRPRPEANPRP	0.78
RRIRQRPPRLPRPRPRPSKCPRP	-0.719
RRIRQRPPRLPRPRPRPIQWPRP	0.34
RRIRRRPPRLPRPRPRPGIPPRP	0.322
RRIRKRPPRLPRPRPRPMYDPRP	-0.127
RRIRTRPPRLPRPRPRPTMPPRP	-0.0706
RRIRLRPPRLPRPRPRPQSGPRP	-0.0923
RRIRMRPPRLPRPRPRPVSEPRP	-0.38
RRIRWRPPRLPRPRPRPCVIPRP	-0.059
RRIRIRPPRLPRPRPRPIPTPRP	-0.0342
RRIRVRPPRLPRPRPRPHFVPRP	-0.0262

Sequence	shrunken log2 fold change
RRIRTRPPRLPRPRPRPTHSPRP	0.384
RRIRNRPPRLPRPRPRPMMPPRP	-0.0635
RRIRQRPPRLPRPRPRPFMDPRP	0.0499
RRIRARPPRLPRPRPRPPCRPRP	0.517
RRIRSRPPRLPRPRPRPSNFPRP	-0.379
RRIRRRPPRLPRPRPRPWMIPRP	-0.26
RRIRMRPPRLPRPRPRPETEPRP	3.69
RRIRTRPPRLPRPRPRPLKPPRP	-0.126
RRIRFRPPRLPRPRPRPDHIPRP	-0.00578
RRIRIRPPRLPRPRPRPFADPRP	-0.26
RRIRLRPPRLPRPRPRPMIAPRP	-0.141
RRIRGRPPRLPRPRPRPGDKPRP	0.425
RRIRDRPPRLPRPRPRPMKCPRP	-0.00962
RRIRSRPPRLPRPRPRPLGSPRP	0.193
RRIRHRPPRLPRPRPRPQWNPRP	-0.281
RRIRLRPPRLPRPRPRPVKKPRP	0.031
RRIRKRPPRLPRPRPRPCFDPRP	0.0357
RRIRCRPPRLPRPRPRPQLLPRP	-0.23
RRIRGRPPRLPRPRPRPTRHPRP	0.764
RRIRHRPPRLPRPRPRPGCYPRP	0.0554
RRIRTRPPRLPRPRPRPWCCPRP	-0.227
RRIRRRPPRLPRPRPRPWMFPRP	0.0935
RRIRHRPPRLPRPRPRPWYHPRP	-1.53
RRIRGRPPRLPRPRPRPESYPRP	0.0402
RRIRYRPPRLPRPRPRPEWKPRP	-0.000687
